Measured values taken from patent US10087225B2, “Formulation of MK2 inhibitor peptides” (MOERAE MATRIX, INC., priority 2015, dated 2018).

How the values were obtained:
Assay in all cases: Kinase Profiling Assay
Format in all cases: biochemical
Conditions in all cases: for % activity: 100 μM
TSSK1(h) = target: T1, TSSK1(h) (Homo sapiens, UniProt Q9BXA7)
T1 sequence (Q9BXA7 1-367): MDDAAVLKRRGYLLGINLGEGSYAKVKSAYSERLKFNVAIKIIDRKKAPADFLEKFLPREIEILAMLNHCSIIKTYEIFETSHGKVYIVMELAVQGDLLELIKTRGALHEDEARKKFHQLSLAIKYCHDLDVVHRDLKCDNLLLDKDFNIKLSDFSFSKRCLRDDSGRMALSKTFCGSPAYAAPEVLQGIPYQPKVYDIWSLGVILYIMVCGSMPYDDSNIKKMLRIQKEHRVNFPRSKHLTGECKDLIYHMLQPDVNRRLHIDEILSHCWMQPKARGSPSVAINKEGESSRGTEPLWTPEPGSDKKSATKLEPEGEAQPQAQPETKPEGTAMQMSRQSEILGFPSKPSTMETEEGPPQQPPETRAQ

EphB1(h) = target: T2, EphB1(h) (Homo sapiens, UniProt P54762)
T2 sequence (P54762 18-984): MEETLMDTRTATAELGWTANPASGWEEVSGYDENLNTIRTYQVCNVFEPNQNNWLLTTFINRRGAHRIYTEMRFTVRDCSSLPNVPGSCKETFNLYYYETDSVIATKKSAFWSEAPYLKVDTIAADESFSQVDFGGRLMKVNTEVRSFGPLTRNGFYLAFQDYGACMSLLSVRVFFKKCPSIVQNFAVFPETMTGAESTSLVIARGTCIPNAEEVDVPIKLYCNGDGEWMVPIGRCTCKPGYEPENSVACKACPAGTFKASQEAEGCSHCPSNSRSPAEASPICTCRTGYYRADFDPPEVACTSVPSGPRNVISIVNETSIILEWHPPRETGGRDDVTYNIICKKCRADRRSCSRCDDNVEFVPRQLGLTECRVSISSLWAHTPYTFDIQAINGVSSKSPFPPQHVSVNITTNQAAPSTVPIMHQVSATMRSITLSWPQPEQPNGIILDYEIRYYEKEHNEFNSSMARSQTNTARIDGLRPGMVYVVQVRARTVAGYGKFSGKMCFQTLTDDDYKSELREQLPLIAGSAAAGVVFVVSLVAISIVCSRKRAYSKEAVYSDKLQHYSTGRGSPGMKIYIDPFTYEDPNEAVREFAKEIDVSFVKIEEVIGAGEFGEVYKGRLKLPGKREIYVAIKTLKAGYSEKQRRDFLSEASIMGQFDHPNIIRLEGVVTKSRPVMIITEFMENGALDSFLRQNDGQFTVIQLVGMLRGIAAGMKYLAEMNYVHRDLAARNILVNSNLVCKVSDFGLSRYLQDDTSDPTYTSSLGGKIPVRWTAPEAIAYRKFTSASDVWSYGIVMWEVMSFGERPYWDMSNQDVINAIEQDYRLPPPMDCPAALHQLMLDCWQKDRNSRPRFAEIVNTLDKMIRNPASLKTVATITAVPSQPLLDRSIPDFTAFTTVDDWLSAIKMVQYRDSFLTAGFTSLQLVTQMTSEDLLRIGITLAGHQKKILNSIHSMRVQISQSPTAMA

EphA7(h) = EphA7(h) (Homo sapiens, UniProt Q15375)
Itk(h) = target: T3, Itk(h) (Homo sapiens, UniProt Q08881)
T3 sequence (Q08881 1-620): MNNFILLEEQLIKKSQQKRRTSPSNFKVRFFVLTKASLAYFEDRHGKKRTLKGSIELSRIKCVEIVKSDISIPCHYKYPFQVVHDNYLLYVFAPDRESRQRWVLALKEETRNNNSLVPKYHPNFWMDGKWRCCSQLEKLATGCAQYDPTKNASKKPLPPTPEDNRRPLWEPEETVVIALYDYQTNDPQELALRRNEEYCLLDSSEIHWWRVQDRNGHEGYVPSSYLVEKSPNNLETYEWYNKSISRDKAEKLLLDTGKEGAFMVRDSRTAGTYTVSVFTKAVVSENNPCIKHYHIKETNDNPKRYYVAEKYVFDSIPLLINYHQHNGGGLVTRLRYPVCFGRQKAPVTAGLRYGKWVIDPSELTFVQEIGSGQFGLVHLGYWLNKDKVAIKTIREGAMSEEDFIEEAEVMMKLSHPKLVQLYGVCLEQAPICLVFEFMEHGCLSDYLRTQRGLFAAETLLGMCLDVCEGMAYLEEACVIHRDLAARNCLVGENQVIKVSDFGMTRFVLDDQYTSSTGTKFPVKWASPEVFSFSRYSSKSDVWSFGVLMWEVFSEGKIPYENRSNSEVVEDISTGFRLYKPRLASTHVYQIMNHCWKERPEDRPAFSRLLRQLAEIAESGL

EphA7(h), sequence (Q15375 28-998): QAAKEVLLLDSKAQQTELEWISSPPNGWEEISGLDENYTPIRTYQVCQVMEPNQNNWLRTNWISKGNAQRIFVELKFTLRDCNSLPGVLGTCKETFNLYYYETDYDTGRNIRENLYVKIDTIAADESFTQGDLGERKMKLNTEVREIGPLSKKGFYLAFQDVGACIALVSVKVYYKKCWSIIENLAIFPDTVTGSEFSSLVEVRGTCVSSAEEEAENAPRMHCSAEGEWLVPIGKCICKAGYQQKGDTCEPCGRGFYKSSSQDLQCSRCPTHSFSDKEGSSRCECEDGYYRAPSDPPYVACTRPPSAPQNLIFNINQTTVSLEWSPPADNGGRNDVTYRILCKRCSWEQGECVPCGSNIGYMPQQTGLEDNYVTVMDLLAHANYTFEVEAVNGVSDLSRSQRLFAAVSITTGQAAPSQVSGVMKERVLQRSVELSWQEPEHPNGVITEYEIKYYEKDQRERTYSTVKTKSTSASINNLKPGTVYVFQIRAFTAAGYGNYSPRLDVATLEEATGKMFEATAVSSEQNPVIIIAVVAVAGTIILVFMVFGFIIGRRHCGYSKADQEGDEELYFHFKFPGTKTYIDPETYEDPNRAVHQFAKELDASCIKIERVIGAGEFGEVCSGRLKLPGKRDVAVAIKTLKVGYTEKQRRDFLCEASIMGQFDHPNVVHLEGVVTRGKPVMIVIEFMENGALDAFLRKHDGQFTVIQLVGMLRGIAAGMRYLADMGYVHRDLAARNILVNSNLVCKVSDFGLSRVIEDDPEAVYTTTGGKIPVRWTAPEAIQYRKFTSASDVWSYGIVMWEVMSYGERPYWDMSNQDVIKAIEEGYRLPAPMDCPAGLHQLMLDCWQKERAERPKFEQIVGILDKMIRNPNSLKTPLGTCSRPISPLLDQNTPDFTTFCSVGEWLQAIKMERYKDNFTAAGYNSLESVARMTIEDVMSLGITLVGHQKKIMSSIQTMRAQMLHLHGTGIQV

Row | Substance | activity at 100 µM (TSSK1(h)) [%] | activity at 100 µM (EphB1(h)) [%] | activity at 100 µM (EphA7(h)) [%] | activity at 100 µM (Itk(h)) [%] | % activity (TSSK1(h)) [%] | % activity (EphB1(h)) [%] | % activity (EphA7(h)) [%] | % activity (Itk(h)) [%]
1 | H-YARAAARQARAKALARQLGVAA-OH [MMI-0100] | 99 | 99 | 193 | 99 |  |  |  | 
2 | YARAAARQARAKALNRQLGVA (Mammalian) [MMI-0200] |  |  |  |  | 98 | 95 | 220 | 98
3 | HRRIKAWLKKIKALARQLGVAA (Mammalian) [MMI-0500] |  |  |  |  | 46 | 37 | 189 | 7
